Laboratory results as given in patent US5389611A, “Lactoferrin hydrolyzate for use as an antibacterial agent and as a tyrosinase inhibition agent” (priority 1990, dated 1995).

B1: lactoferrin (protein, UniProt P24627 20-708, looked up)
Lactotransferrin: APRKNVRWCTISQPEWFKCRRWQWRMKKLGAPSITCVRRAFALECIRAIAEKKADAVTLDGGMVFEAGRDPYKLRPVAAEIYGTKESPQTHYYAVAVVKKGSNFQLDQLQGRKSCHTGLGRSAGWIIPMGILRPYLSWTESLEPLQGAVAKFFSASCVPCIDRQAYPNLCQLCKGEGENQCACSSREPYFGYSGAFKCLQDGAGDVAFVKETTVFENLPEKADRDQYELLCLNNSRAPVDAFKECHLAQVPSHAVVARSVDGKEDLIWKLLSKAQEKFGKNKSRSFQLFGSPPGQRDLLFKDSALGFLRIPSKVDSALYLGSRYLTTLKNLRETAEEVKARYTRVVWCAVGPEEQKKCQQWSQQSGQNVTCATASTTDDCIVLVLKGEADALNLDGGYIYTAGKCGLVPVLAENRKSSKHSSLDCVLRPTEGYLAVAVVKKANEGLTWNSLKDKKSCHTAVDRTAGWNIPMGLIVNQTGSCAFDEFFSQSCAPGADPKSRLCALCAGDDQGLDKCVPNSKEKYYGYTGAFRCLAEDVGDVAFVKNDTVWENTNGESTADWAKNLNREDFRLLCLDGTRKPVTEAQSCHLAVAPNHAVVSRSDRAAHVKQVLLHQQALFGKNGKNCPDKFCLFKSETKNLLFNDNTECLAKLGGRPTYEEYLGTEYVTAIANLKKCSTSPLLEACAFLTR
notes: Native LF sold in the market (by Oleofina, Belgium), not hydrolyzed; control of Tests 1, 3-6, 8
B2: unhydrolyzed Fe-LF: Comparison sample of Test 7; table says unhydrolyzed Fe-LF ?, text says unhydrolyzed LF (protein, UniProt P24627 20-708, looked up)
Lactotransferrin: APRKNVRWCTISQPEWFKCRRWQWRMKKLGAPSITCVRRAFALECIRAIAEKKADAVTLDGGMVFEAGRDPYKLRPVAAEIYGTKESPQTHYYAVAVVKKGSNFQLDQLQGRKSCHTGLGRSAGWIIPMGILRPYLSWTESLEPLQGAVAKFFSASCVPCIDRQAYPNLCQLCKGEGENQCACSSREPYFGYSGAFKCLQDGAGDVAFVKETTVFENLPEKADRDQYELLCLNNSRAPVDAFKECHLAQVPSHAVVARSVDGKEDLIWKLLSKAQEKFGKNKSRSFQLFGSPPGQRDLLFKDSALGFLRIPSKVDSALYLGSRYLTTLKNLRETAEEVKARYTRVVWCAVGPEEQKKCQQWSQQSGQNVTCATASTTDDCIVLVLKGEADALNLDGGYIYTAGKCGLVPVLAENRKSSKHSSLDCVLRPTEGYLAVAVVKKANEGLTWNSLKDKKSCHTAVDRTAGWNIPMGLIVNQTGSCAFDEFFSQSCAPGADPKSRLCALCAGDDQGLDKCVPNSKEKYYGYTGAFRCLAEDVGDVAFVKNDTVWENTNGESTADWAKNLNREDFRLLCLDGTRKPVTEAQSCHLAVAPNHAVVSRSDRAAHVKQVLLHQQALFGKNGKNCPDKFCLFKSETKNLLFNDNTECLAKLGGRPTYEEYLGTEYVTAIANLKKCSTSPLLEACAFLTR
modifications: iron-saturated

Experiments:
Escherichia coli [1] = experiment: Antibacterial activity: proliferation inhibition of E. coli in liquid culture medium (Tests 1, 3, 6); format: cell-based
Procedure: From the stock culture of Escherichia coli, a loop of bacterial cells was taken out with a platinum loop and smeared onto a standard plate agar medium (by Nissui Seiyaku), followed by incubation at 35° C. for 16 hours under aerobic condition.
Basic culture medium (liquid culture medium) was prepared by dissolving bactocasitone (by Difco) into purified water in 1% concentration, adjusting the pH of the resultant solution to 7.0 with 1M sodium hydroxide, then sterilizing at 115° C. for 15 minutes.
The solutions of LF hydrolyzates previously prepared in item 1-1) were respectively filtered with membrane filters (by Advantech) to remove microorganisms which might be included therein. Different quantities of each of filtered solutions of LF hydrolyzates were respectively added to a portion of the basic culture medium to give 6 lots of test culture media containing LF hydrolyzate in different concentrations for each LF hydrolyzate having different decomposition rates as shown in Table 1. Control culture media containing unhydrolyzed LF in different concentrations were also prepared in the same manner as in the test culture media.
To each of the test and control culture media, the pre-culture was inoculated in 1% concentration, followed by incubation at 35° C. for 16 hours. The proliferation inhibition rate was determined by measuring the optical density of the culture broth in the same manner as previously described and calculating in accordance with the following formula:
proliferation inhibition rate (%)=100-(A/B×100)
(wherein A denotes the difference of optical densities of the test culture media before and after 16 hours incubation, B denotes the difference of optical densities of the control culture media before and after 16 hours incubation respectively) and
Antibacterial activity against E. coli of LF hydrolyzate having a 12% decomposition rate prepared in the same manner as in Example 2 (hydrolysis by citric acid) and that of unhydrolyzed LF were determined in the same manner as in Test 1.
Aqueous solutions of 10 kinds of LF hydrolyzate (prepared using different enzymes) and an aqueous solution of unhydrolyzed LF prepared in the same manner as in test 2 were filtered with membrane filters (by Advantec) to remove bacterial cells which might be contaminated therein. Each of the solutions was added to basic culture media (the same with that in Test 1) in different concentrations (50, 100, 250, 500, and 1000 ppm) to prepare test cultures and control cultures.
Antibacterial activity was tested for these cultures in the same manner as in test 1.

[2] = Preservation of cow's milk, change in appearance (Test 7); conditions: cow's milk at 25° C.
Procedure: The antibacterial activity of hydrolyzates of iron saturated LF was tested in the same manner as in test 5, except that hydrolyzates of iron saturated LF prepared in the same manner as in Example 5 and cow's milk sold in the market were used.
Each of three kinds of samples, to one of which is added hydrolyzate of Fe-LF, to another one of which is added unhydrolyzed LF and the third of which is added nothing, were respectively distributed into 3 test tubes (in total 9) and preserved at 25° C. for observation of any change in appearance.

Escherichia coli [3] = experiment: Antibacterial activity against E. coli in the presence of iron (Test 8); format: cell-based; conditions: 0.01 mM of ferrous sulfate
viable bacterial count = experiment: Viable bacterial count of treated sliced vegetables (Test 4); conditions: dipped in 1% aqueous solution 30 seconds, preserved at 5° C.
Procedure: A quantity of sliced vegetables sold in the market was divided into three parts. […] Each of the treated samples was drained then preserved at 5° C. for observation. Viable bacterial count of the samples was periodically determined by the conventional method.

[4] = preservation day 10, 3 test tubes
[5] = preservation day 14, 3 test tubes

Row | Molecule | quantity added at which antibacterial activity was shown (Escherichia coli [1]; Table 1) | proliferation inhibition rate (Escherichia coli [1]; Table 1, concentration 1000 ppm) | proliferation inhibition rate (Escherichia coli [1]; Table 3, quantity added 25 ppm) [%] | proliferation inhibition rate (Escherichia coli [1]; Table 3, quantity added 50 ppm) [%] | proliferation inhibition rate (Escherichia coli [1]; Table 3, quantity added 100 ppm) [%] | proliferation inhibition rate (Escherichia coli [1]; Table 3, quantity added 250 ppm) [%] | proliferation inhibition rate (Escherichia coli [1]; Table 3, quantity added 500 ppm) [%] | proliferation inhibition rate (Escherichia coli [1]; Table 3, quantity added 1000 ppm) [%] | proliferation inhibition rate (Escherichia coli [1]; Table 5, quantity 250 ppm) | proliferation inhibition rate (Escherichia coli [1]; Table 5, quantity 1000 ppm) | change in appearance of milk [2, 4] | change in appearance of milk [2, 5] | antibacterial activity in the presence of ferrous sulfate, in words (Escherichia coli [3]) | viable bacterial counts (viable bacterial count; 0 hours) | viable bacterial counts (viable bacterial count; 12 hours) | viable bacterial counts (viable bacterial count; 24 hours) | viable bacterial counts (viable bacterial count; 36 hours) | change in appearance of milk ([2]; preservation day 0, 3 test tubes) | change in appearance of milk ([2]; preservation day 3, 3 test tubes) | change in appearance of milk ([2]; preservation day 7, 3 test tubes)
1 | B1 | more than 250 ppm | complete inhibition could not be achieved | 0 | 0 | 5 | 16 | 74 | 85 | weak antibacterial activity | complete inhibition against proliferation of E. coli could not be achieved | did not show any change in appearance | all of the samples showed coagulation | deactivated | 5.1 × 10^3 per 1 g of sliced vegetables | 2.0 × 10^4 per 1 g of sliced vegetables | 1.8 × 10^5 per 1 g of sliced vegetables | 2.2 × 10^5 per 1 g of sliced vegetables | – | – | –
2 | B2 | – | – | – | – | – | – | – | – | – | – | no change | coagulated | – | – | – | – | – | no change | no change | no change
